Reference: patent US12679878B2, “CRF2 receptor agonists and their use in therapy” (SANOFI, priority 2020, dated 2026)
Starred links: 1 amine or outer side, 2 acyl side, 3 side chain; linkers in the order of their positions; H or OH if unused. Non-standard residues stand in square brackets, D forms with d. Groups on a side chain read outwards from the residue. No end group written: not given here. *: point of attachment. C18 diacid = O=C(O)CCCCCCCCCCCCCCCCC(=O)*; γGlu = O=C(O)[C@H](CCC(=O)[*:2])N[*:1]; AEEA = NCCOCCOCC(=O)O; Aib = CC(C)(N)C(=O)O

Target: T1, CRF1R receptor (anti-target) (UniProt P34998 24-415, limits assumed)
T1 sequence (looked up): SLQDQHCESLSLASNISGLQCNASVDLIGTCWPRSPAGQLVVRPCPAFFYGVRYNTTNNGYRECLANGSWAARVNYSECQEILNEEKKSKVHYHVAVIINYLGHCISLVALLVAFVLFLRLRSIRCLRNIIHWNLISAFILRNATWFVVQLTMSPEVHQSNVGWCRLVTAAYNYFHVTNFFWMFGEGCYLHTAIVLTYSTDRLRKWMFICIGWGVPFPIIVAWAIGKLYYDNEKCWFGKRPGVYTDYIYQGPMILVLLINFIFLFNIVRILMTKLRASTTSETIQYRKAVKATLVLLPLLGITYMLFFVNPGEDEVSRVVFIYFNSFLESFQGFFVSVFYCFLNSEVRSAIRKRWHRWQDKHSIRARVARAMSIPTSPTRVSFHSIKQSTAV
Test: cell-based or functional assay

Row | Binder | EC50 [nM] 0% HSA (cAMP, HTRF) [nM] | Emax (%) (100% = Sauvagine at 100 nM)
1 | IVLSLDVPIKLK([AEEA-AEEA-γGlu-C18 diacid])QILLKQERQK[Aib]QRQQAETNKQILAQV-NH2 (N-terminus assumed; SMILES CC[C@H](C)[C@H](N)C(=O)N[C@H](C(=O)N[C@@H](CC(C)C)C(=O)N[C@@H](CO)C(=O)N[C@@H](CC(C)C)C(=O)N[C@@H](CC(=O)O)C(=O)N[C@H](C(=O)N1CCC[C@H]1C(=O)N[C@H](C(=O)N[C@@H](CCCCN)C(=O)N[C@@H](CC(C)C)C(=O)N[C@@H](CCCCNC(=O)COCCOCCNC(=O)COCCOCCNC(=O)CC[C@H](NC(=O)CCCCCCCCCCCCCCCCC(=O)O)C(=O)O)C(=O)N[C@@H](CCC(N)=O)C(=O)N[C@H](C(=O)N[C@@H](CC(C)C)C(=O)N[C@@H](CC(C)C)C(=O)N[C@@H](CCCCN)C(=O)N[C@@H](CCC(N)=O)C(=O)N[C@@H](CCC(=O)O)C(=O)N[C@@H](CCCNC(=N)N)C(=O)N[C@@H](CCC(N)=O)C(=O)N[C@@H](CCCCN)C(=O)NC(C)(C)C(=O)N[C@@H](CCC(N)=O)C(=O)N[C@@H](CCCNC(=N)N)C(=O)N[C@@H](CCC(N)=O)C(=O)N[C@@H](CCC(N)=O)C(=O)N[C@@H](C)C(=O)N[C@@H](CCC(=O)O)C(=O)N[C@H](C(=O)N[C@@H](CC(N)=O)C(=O)N[C@@H](CCCCN)C(=O)N[C@@H](CCC(N)=O)C(=O)N[C@H](C(=O)N[C@@H](CC(C)C)C(=O)N[C@@H](C)C(=O)N[C@@H](CCC(N)=O)C(=O)N[C@H](C(N)=O)C(C)C)[C@@H](C)CC)[C@@H](C)O)[C@@H](C)CC)[C@@H](C)CC)C(C)C)C(C)C) [peptide of SEQ ID NO: 110] | > 100 | 5.4
2 | IVLSLDVPIKLK([AEEA-AEEA-γGlu-C18 diacid])QILLKQERQK[Aib]QREKAETNKQILAQV-NH2 (N-terminus assumed; SMILES CC[C@H](C)[C@H](N)C(=O)N[C@H](C(=O)N[C@@H](CC(C)C)C(=O)N[C@@H](CO)C(=O)N[C@@H](CC(C)C)C(=O)N[C@@H](CC(=O)O)C(=O)N[C@H](C(=O)N1CCC[C@H]1C(=O)N[C@H](C(=O)N[C@@H](CCCCN)C(=O)N[C@@H](CC(C)C)C(=O)N[C@@H](CCCCNC(=O)COCCOCCNC(=O)COCCOCCNC(=O)CC[C@H](NC(=O)CCCCCCCCCCCCCCCCC(=O)O)C(=O)O)C(=O)N[C@@H](CCC(N)=O)C(=O)N[C@H](C(=O)N[C@@H](CC(C)C)C(=O)N[C@@H](CC(C)C)C(=O)N[C@@H](CCCCN)C(=O)N[C@@H](CCC(N)=O)C(=O)N[C@@H](CCC(=O)O)C(=O)N[C@@H](CCCNC(=N)N)C(=O)N[C@@H](CCC(N)=O)C(=O)N[C@@H](CCCCN)C(=O)NC(C)(C)C(=O)N[C@@H](CCC(N)=O)C(=O)N[C@@H](CCCNC(=N)N)C(=O)N[C@@H](CCC(=O)O)C(=O)N[C@@H](CCCCN)C(=O)N[C@@H](C)C(=O)N[C@@H](CCC(=O)O)C(=O)N[C@H](C(=O)N[C@@H](CC(N)=O)C(=O)N[C@@H](CCCCN)C(=O)N[C@@H](CCC(N)=O)C(=O)N[C@H](C(=O)N[C@@H](CC(C)C)C(=O)N[C@@H](C)C(=O)N[C@@H](CCC(N)=O)C(=O)N[C@H](C(N)=O)C(C)C)[C@@H](C)CC)[C@@H](C)O)[C@@H](C)CC)[C@@H](C)CC)C(C)C)C(C)C) [peptide of SEQ ID NO: 109] | > 100 | 1.1
